Test results as given in doi:10.1101/2025.03.25.645380, “Extracellular Nanobody Screening using Conformationally Stable GPCR” (bioRxiv, 2025).

Assays:
[1] = biological target: T1, M1R-G11CT (Homo sapiens (from template PDB 6OIJ), UniProt P11229, chimera); experiment: flow cytometry on cells; nanobody displayed on yeast, single colonies; stained with 10 nM fluorescence-labeled purified FLAG-tagged receptor (atropine-bound M1R-Clip1 or iperoxo-bound M1R-G11CT), Alexa Fluor-647 anti-FLAG and Alexa Fluor-488 anti-HA; selection buffer 20 mM HEPES pH 7.5, 100 mM NaCl, 0.05% MNG, 0.005% CHS, 2 mM CaCl2, 0.1% BSA, 0.2% maltose; conditions: one partner purified
T1 construct: M1 muscarinic acetylcholine receptor (M1R), N-terminal part through TM5 up to the fusion site T215 (5.65); de novo designed fusion protein (RFdiffusion, ProteinMPNN, AlphaFold2) put between T215 and A364 in place of ICL3; M1 muscarinic acetylcholine receptor (M1R), from the fusion site A364 (6.34) in TM6 to the C-terminus of the receptor; 2×GGSGG linker between the C-terminus of the receptor and …

[2] = biological target: T1, M1R-G11CT; experiment: cryo-EM structure; purified M1R-nanobody complexes on Au Quantifoil grids; Nb1B4 with M1R-G11CT and iperoxo, NbA12 with M1R-Clip1 and atropine; conditions: both partners purified
Target sequence in this assay (P11229 whole entry, stated change not applied, the tested form may be a part): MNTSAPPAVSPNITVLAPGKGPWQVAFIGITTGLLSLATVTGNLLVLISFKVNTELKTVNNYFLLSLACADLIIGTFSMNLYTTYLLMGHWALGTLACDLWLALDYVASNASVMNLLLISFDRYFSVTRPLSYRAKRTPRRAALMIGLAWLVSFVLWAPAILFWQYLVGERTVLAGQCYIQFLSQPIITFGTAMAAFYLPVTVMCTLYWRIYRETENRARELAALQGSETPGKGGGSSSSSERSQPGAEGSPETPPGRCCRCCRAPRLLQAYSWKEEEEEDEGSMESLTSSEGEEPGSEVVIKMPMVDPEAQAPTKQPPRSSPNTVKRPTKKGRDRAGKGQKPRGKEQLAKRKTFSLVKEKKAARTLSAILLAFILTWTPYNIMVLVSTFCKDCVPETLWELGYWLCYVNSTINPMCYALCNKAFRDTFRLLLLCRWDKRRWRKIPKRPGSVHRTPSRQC

B1: Nb1B4 displayed on yeast (VHH)
VHH: QVQLQESGGGLVQAGGSLRLSCAASGSIFYGYYMGWYRQAPGKEREFVATINYGASTNYADSVKGRFTISRDNAKNTVYLQMNSLKPEDTAVYYCAVRRVYVYVQRYYHYYWGQGTQVTVSS
notes: Yeast display fusion; also called active-state selective nanobody
[1]
  binding result: binds

B2: Nb1B4, purified (VHH)
VHH: B1 VHH
notes: also called active-state selective nanobody; source: E. coli BL21(DE3) periplasm or HEK293F supernatant, purified (Ni-NTA, SEC)
[2]
  binding result: binds
